Test results reported in patent publication US20110003880A1, “Compositions and methods for inhibiting optic nerve damage” (priority 2006, published 2011).

Legend:
PAD 2 = assay: Modulation of intracellular calcium and PAD 2 expression in pressure treated astrocytes; assay type: cell-based, rat; details: astrocytes subjected to 40 mm Hg for 5 hours; 50-200 nM
Procedure: FIGS. 9A-9B. Modulation of intracellular calcium concentration and PAD 2 expression. The astrocytes were subjected to 40 mm Hg for 5 hours and restored to normal pressure except controls. Pressure treated cells were subjected to (FIG. 9A) indicated concentrations of BAPTA-AM for 24 hours or (FIG. 9B) indicated concentrations of Thapsigargin. Total protein were extracted and transferred on PVDF membrane after SDS-PAGE separation and probed with antibodies to PAD 2 and GPDH, secondary antibodies coupled with IR-700 dye allowed scanning and detection.
Astrocytes from Sprague Dawley rats (Harlan, Indianapolis, Ind.) brain cortex were used for these studies. Mixed glial cell suspensions were prepared from the P3 rat cortex regions following published procedures (Fuss, B., et al., Dev Biol., 218:259-74 (2000)) from which enriched GFAP positive cells were obtained using immunopanning (Yang, P., et al., Brain Res Brain Res Protoc. 12:67-76 (2003)). The astrocytes were exposed to a pressure of 40 mm of Hg for five hours (Yang, J. L., et al., Exp Eye Res. 56:567-74 (1993); Salvador-Silva, M., et al., Glia. 45:364-77 (2004)). Briefly, the cells plated in six well plates (Costar, Cambridge, Mass., USA) at a density of 3-10×10^3 cells/well and grown to semiconfluence in 2 days were incubated with serum free medium overnight. […]

PAD2 [1] = assay: Anti-PAD2 Western analysis of optic nerve from glaucomatous donors; assay type: in vivo, human; details: 85M POAG donor, trabeculectomy plus verapamil; compared with other POAG eyes (86M and 76F)
Procedure: FIGS. 5A-5D. Elevated level of PAD2 and citrulline in response to pressure. […] Protein extracted from the optic nerve of cadaver Caucasian donor eyes, age and gender are as indicated. All glaucomatous donors suffered elevated IOP and were subjected to surgical intervention except the 76F donor. The 85M donor also received verapamil, a calcium modulator. FIG. 5B, Representative Western analyses with anti-PAD2 of rat brain astrocytes subjected to 40 mm Hg pressure for 5 h then returned to atmospheric pressure for up to 4 days as indicated. FIG. 5C, Representative Western analysis with anti-citrulline of protein extracts (5 μg) from astrocytes subjected to elevated pressure as in FIG. 5B. […]
For these analyses previously described mouse monoclonal antibody (mAb) against PAD2 (Koike, H., et al., Biosci Biotechnol Biochem. 58:2286-7(1994); Koike, H., et al., Biosci Biotechnol Biochem. 59:552-4(1995)) was used. […] For quantitative Western analyses, anti-mouse and anti-rabbit secondary antibody linked to 700 nm or 800 nm IR-dyes were used on an Odyssey Infrared Imaging system according to the manufacturer (Li-Cor Biosciences, Lincoln, Neb.). […]
Other donor eyes that had undergone either surgical or combined surgical and pharmacological intervention to relieve elevated IOP were also analyzed for PAD2. […]

PAD2 [2] = assay type: cell-based, rat
Procedure: Astrocytes from Sprague Dawley rats (Harlan, Indianapolis, Ind.) brain cortex were used for these studies. Mixed glial cell suspensions were prepared from the P3 rat cortex regions following published procedures (Fuss, B., et al., Dev Biol., 218:259-74 (2000)) from which enriched GFAP positive cells were obtained using immunopanning (Yang, P., et al., Brain Res Brain Res Protoc. 12:67-76 (2003)). The astrocytes were exposed to a pressure of 40 mm of Hg for five hours (Yang, J. L., et al., Exp Eye Res. 56:567-74 (1993); Salvador-Silva, M., et al., Glia. 45:364-77 (2004)). Briefly, the cells plated in six well plates (Costar, Cambridge, Mass., USA) at a density of 3-10×10^3 cells/well and grown to semiconfluence in 2 days were incubated with serum free medium overnight. A closed pressurized chamber (5% carbon dioxide) equipped with a manometer was used to subject the cells to elevated pressure. Cells were placed in the chamber and the pressure was elevated to 40 mm Hg. The chamber was subsequently placed in a tissue culture incubator at 37° C. Control cells from identical passage of cell lines were simultaneously incubated in a tissue culture incubator at atmospheric pressure at 37° C. The cells were incubated for 5 h or 1-4 days after pressure treatment. After incubation, cells were trypsinized and subjected to culture or Western analyses. For culture, the cells were plated on a cover slip and allowed 16 hours recovery period and subjected to immunohistochemistry using mouse monoclonal PAD2 and rabbit polyclonal GFAP antibodies. The cells were permeabilized with 200 μl of 0.2% Triton X-100 in phosphate buffer saline pH 7.5 for 1 hour after fixation with 4% paraformaldehyde for 1 hour. Western analyses were performed using antibodies to PAD2 and citrulline as described above.
For treatment of rat cortex astrocytes, shRNA against PAD2 (OpenBiosystems, Cat. #RHS 1764-9214220) was procured from OpenBiosystems in pShag Magic version 2.0 vector (OpenBiosystems). This shRNA contains the sequence (5′[…]′3) (SEQ ID NO: 7) from the coding region of PAD2 (see FIG. 14). For a negative control, we used a non-silencing shRNA sequence cloned into pShag Magic 2.0 (OpenBiosystems, cat. #RHS1703) from OpenBiosystems verified to contain no homology to known mammalian genes. About 30% confluent cells (3000 primary astrocytes) (Lee, J. H., et al., Glia., 50:66-79 (2005)) were transfected using SuperFect transfection reagent, purified vector (5 μg) DNA (Qiagen, Valencia, Calif.) and the manufacturer's recommended protocols. The post transfected astrocytes were selected on geneticin (10 μg/μl). The primary astrocytes were subjected to pressure (40 mm of Hg) and transfected with shRNA on plates immediately after they were brought to normal atmospheric pressure.

[3] = astrocytes subjected to 40 mm Hg, transfected with shRNA immediately after return to atmospheric pressure, vs non-specific shRNA

## CC(=O)OCOC(=O)CN(CC(=O)OCOC(C)=O)c1ccccc1OCCOc1ccccc1N(CC(=O)OCOC(C)=O)CC(=O)OCOC(C)=O [BAPTA-AM]
PAD 2
  expression of PAD 2 protein (Western): reduces expression of PAD 2 protein

## COc1ccc(CCN(C)CCCC(C#N)(c2ccc(OC)c(OC)c2)C(C)C)cc1OC (centres unmarked) [verapamil]
PAD2 [1]
  optic nerve PAD2 level (Western, relative to GPDH): appeared lower

## C/C=C(/C)C(=O)O[C@H]1C(C)=C2[C@H]([C@@H]1OC(=O)CCCCCCC)[C@@](C)(OC(C)=O)C[C@H](OC(=O)CCC)[C@@]1(O)[C@H]2OC(=O)[C@@]1(C)O [Thapsigargin]
PAD 2
  expression of PAD 2 protein (Western): seems not to show a great increase in PAD 2 expression

B1: PAD2 specific shRNA: shRNA against PAD2 (OpenBiosystems, Cat. #RHS 1764-9214220) in pShag Magic version 2.0 vector, SEQ ID NO: 7 (nucleic acid)
chain: TGCTGTTGACAGTGAGCGACAGCCTTGACTCATTTGGAAATAGTGAAGCCACAGATGTATTTCCAAATGAGTCAAGGCTGGTGCCTACTGCCTCGGA
PAD2 [2]
  Differences in cell morphology due to reduction in mRNA: not observed
PAD2 [2]; [3]
  PAD2 expression (anti-PAD2 Western analysis): reduced PAD2 expression
  citrullination (anti-citrulline Western analysis): reduced citrullination
PAD2 [2]; isolated astrocytes, 5 hours or 4 days at atmospheric pressure after 40 mm Hg, compared to untreated group
  PAD 2 by immunohistochemical analysis: reduced
PAD2 [2]; pressure treated astrocytes transfected with shRNA, within the sensitivity of detection
  PAD2 mRNA (Northern analysis of total RNA): completely removed
